Laboratory results published in patent US20180155451A1 (published 2018).

T1: FcγRIIb extracellular domain with C-terminal His tag (human, UniProt P31994 43-217)
T1 construct: extracellular domain; also called FcgRIIb; 2b; not shown: His tag at the C terminus
T1 sequence (looked up): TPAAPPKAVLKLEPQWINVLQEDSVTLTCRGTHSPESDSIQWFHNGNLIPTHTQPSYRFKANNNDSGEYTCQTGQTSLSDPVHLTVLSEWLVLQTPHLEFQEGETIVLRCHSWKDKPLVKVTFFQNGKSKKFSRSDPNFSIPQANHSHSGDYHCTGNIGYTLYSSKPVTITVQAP

T2: FcγRIIa R (FcγRIIa, allotype R: Arg at position 131) extracellular domain with C-terminal His tag (human, UniProt P12318 34-217)
T2 construct: extracellular domain; also called FcgRIIa R; 2aR; not shown: His tag at the C terminus
T2 sequence (looked up): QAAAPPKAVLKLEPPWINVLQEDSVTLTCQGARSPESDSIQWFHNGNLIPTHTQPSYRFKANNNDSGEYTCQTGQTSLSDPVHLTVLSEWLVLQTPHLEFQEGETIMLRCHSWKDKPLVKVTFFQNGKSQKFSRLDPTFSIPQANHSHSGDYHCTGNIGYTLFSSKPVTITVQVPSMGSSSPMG

B1: GpH7-A5/GpH7-B3 variant K326_12R/GpL16-k0 (antibody, human IgG1, kappa)
heavy 1: not shown
heavy 2: not shown
light: DIVMTQSPLSLPVTPGEPASISCQASESLVHSNRNTYLHWYLQKPGQSPQLLIYKVSNRFSGVPDRFSGSGSGTDFTLKISRVEAEDVGVYYCSQNTHVPPTFGQGTKVEIERTVAAPSVFIFPPSDEQLKSGTASVVCLLNNFYPREAKVQWKVDNALQSGNSQESVTEQDSKDSTYSLSSTLTLSKADYEKHKVYACEVTHQGLSSPVTKSFNRGEC
notes: He Ab: alteration in the GpH7-B3 H chain only; also called He Ab
B2: GpH7-A5/GpH7-B3 variant N325_14T/GpL16-k0 (antibody, human IgG1, kappa)
heavy 1: not shown
heavy 2: not shown
light: B1 light
notes: as for B1
B3: GpH7-A5/GpH7-B3 variant P331_13S/GpL16-k0 (antibody, human IgG1, kappa)
heavy 1: not shown
heavy 2: not shown
light: B1 light
notes: as for B1
B4: GpH7-A5/GpH7-B3 variant L234_04F/GpL16-k0 (antibody, human IgG1, kappa)
heavy 1: not shown
heavy 2: not shown
light: B1 light
notes: as for B1
B5: GpH7-A5/GpH7-B3 variant N325_10E/GpL16-k0 (antibody, human IgG1, kappa)
heavy 1: not shown
heavy 2: not shown
light: B1 light
notes: as for B1
B6: GpH7-A5/GpH7-B3 variant Y296_09D/GpL16-k0 (antibody, human IgG1, kappa)
heavy 1: not shown
heavy 2: not shown
light: B1 light
notes: as for B1
B7: GpH7-A5/GpH7-B3 variant S239_14T/GpL16-k0 (antibody, human IgG1, kappa)
heavy 1: not shown
heavy 2: not shown
light: B1 light
notes: as for B1
B8: GpH7-A5/GpH7-B3 variant P331_02A/GpL16-k0 (antibody, human IgG1, kappa)
heavy 1: not shown
heavy 2: not shown
light: B1 light
notes: as for B1
B9: GpH7-A5/GpH7-B3 variant Q295_06M/GpL16-k0 (antibody, human IgG1, kappa)
heavy 1: not shown
heavy 2: not shown
light: B1 light
notes: as for B1
B10: GpH7-A5/GpH7-B3 variant Y296_10E/GpL16-k0 (antibody, human IgG1, kappa)
heavy 1: not shown
heavy 2: not shown
light: B1 light
notes: as for B1
B11: GpH7-A5/GpH7-B3 variant Q295_10E/GpL16-k0 (antibody, human IgG1, kappa)
heavy 1: not shown
heavy 2: not shown
light: B1 light
notes: as for B1
B12: GpH7-A5/GpH7-B3 variant P331_18N/GpL16-k0 (antibody, human IgG1, kappa)
heavy 1: not shown
heavy 2: not shown
light: B1 light
notes: as for B1
B13: GpH7-A5/GpH7-B3 variant P331_08L/GpL16-k0 (antibody, human IgG1, kappa)
heavy 1: not shown
heavy 2: not shown
light: B1 light
notes: as for B1
B14: GpH7-A5/GpH7-B3 variant Y296_06M/GpL16-k0 (antibody, human IgG1, kappa)
heavy 1: not shown
heavy 2: not shown
light: B1 light
notes: as for B1
B15: GpH7-A5/GpH7-B3 variant P331_14T/GpL16-k0 (antibody, human IgG1, kappa)
heavy 1: not shown
heavy 2: not shown
light: B1 light
notes: as for B1
B16: GpH7-A5/GpH7-B3 variant S324_04F/GpL16-k0 (antibody, human IgG1, kappa)
heavy 1: not shown
heavy 2: not shown
light: B1 light
notes: as for B1
B17: GpH7-A5/GpH7-B3 variant N325_15Y/GpL16-k0 (antibody, human IgG1, kappa)
heavy 1: not shown
heavy 2: not shown
light: B1 light
notes: as for B1
B18: GpH7-A5/GpH7-B3 variant Y296_04F/GpL16-k0 (antibody, human IgG1, kappa)
heavy 1: not shown
heavy 2: not shown
light: B1 light
notes: as for B1
B19: GpH7-A5/GpH7-B3 variant Y296_07I/GpL16-k0 (antibody, human IgG1, kappa)
heavy 1: not shown
heavy 2: not shown
light: B1 light
notes: as for B1
B20: GpH7-A5/GpH7-B3 variant P331_09D/GpL16-k0 (antibody, human IgG1, kappa)
heavy 1: not shown
heavy 2: not shown
light: B1 light
notes: as for B1

target: T1, FcγRIIb extracellular domain with …; experiment: SPR Biacore, antibody captured, FcgR analyte; vs HeCon Ab GpH7-A5/GpH7-B3/GpL16-k0 = 100
Experimental: (§1) The heterodimerized antibodies He Abs in which one of the H chains was introduced with an alteration were assayed for their binding activities to each activating FcγR and inhibitory FcγR according to the method described in Example 4. […] The activating FcγRs in FIGS. 26, 27, 28, and 29 are FcγRIa, FcγRIIa (R), FcγRIIa (H), and FcγRIIIa, respectively.
(§2) Analysis of interaction between objective antibody and the FcγR was carried out using Biacore T100 (GE Healthcare). HBS-EP+ (GE Healthcare) was used as the running buffer, and the measurement temperature was set to 25° C. Chips produced by immobilizing the antigen peptide by the amine coupling method to a Series S Sencor Chip CM5 (GE Healthcare), or alternatively, chips produced by allowing preliminarily biotinylated antigen peptides to interact with and immobilize onto a Series S Sensor Chip SA (certified) (GE Healthcare) were used. Antibodies of interest were captured onto an antigen peptide-immobilized chip, and allowed to interact to each FcγR diluted with running buffer. To regenerate and repeatedly use the chip, the antibodies captured on the chip were washed off by reacting 10 mM glycine-HCl, pH 1.5.

He/Con_2b [control = 100] | Binder
89.2 | B1
91.6 | B2
96.8 | B3
99.8 | B4
95.9 | B5
98.9 | B6
97.3 | B7
99.5 | B8
90.4 | B9
98 | B10
94.8 | B11
99.2 | B12
95.7 | B13
87.8 | B14
99.8 | B15
89.1 | B16
99.5 | B17
99.2 | B18
84.3 | B19
94.3 | B20

target: T2, FcγRIIa R (FcγRIIa, allotype R: Arg at …); experiment: as above
Experimental: as §1, §2

He/Con_2aR [control = 100] | Binder
103 | B1
105 | B2
105 | B3
104 | B4
105 | B5
106 | B6
103 | B7
106 | B8
102 | B9
103 | B10
102 | B11
105 | B12
102 | B13
101 | B14
104 | B15
104 | B16
101 | B17
109 | B18
101 | B19
102 | B20
